Legend:
Assay type in all cases: in vivo
[1] = test system: transgenic maize plants; assay: flumioxazin tolerance of transgenic maize plants (spray, grade of pesticide damage); details: for The grade of pesticide damage/plant: number of plants of grade 0 / The grade of pesticide damage/plant: number of plants of grade 1 / The grade of pesticide damage/plant: number of plants of grade 2 / The grade of pesticide damage/plant: number of plants of grade 3: 7 DAT, 16 maize plants per genotype
[2] = test system: transgenic maize plants; assay: saflufenacil tolerance of transgenic maize plants (spray, grade of pesticide damage); details: for tolerance to saflufenacil: maize; for The grade of pesticide damage/plant: number of plants of grade 0 / The grade of pesticide damage/plant: number of plants of grade 1 / The grade of pesticide damage/plant: number of plants of grade 2 / The grade of pesticide damage/plant: number of plants of grade 3: 7 DAT, 16 maize plants per genotype
[3] = test system: transgenic maize plants; assay: oxyfluorfen tolerance of transgenic maize plants (spray, grade of pesticide damage); details: for tolerance to oxyfluorfen: maize; for The grade of pesticide damage/plant: number of plants of grade 0 / The grade of pesticide damage/plant: number of plants of grade 1 / The grade of pesticide damage/plant: number of plants of grade 2 / The grade of pesticide damage/plant: number of plants of grade 3: 7 DAT, 16 maize plants per genotype
[4] = flumioxazin 120 g ai/ha (2x field concentration)
[5] = flumioxazin 240 g ai/ha (4x field concentration)
[6] = saflufenacil 50 g ai/ha (2x field concentration)
[7] = saflufenacil 100 g ai/ha (4x field concentration)
[8] = oxyfluorfen 360 g ai/ha (2x field concentration)
[9] = oxyfluorfen 720 g ai/ha (4x field concentration)

B1: PPO1B: nucleotide sequence encoding protoporphyrinogen oxidase PPO1, maize common codon usage bias (nucleic acid)
DNA: ATGAAAGCGTTGGTTCTTTACAGTACAAGAGATGGTCAGACCCACGCCATTGCGAGCTATATCGCAAACTGCATGAAGGAGAAGTATGAATGTGACGTCATTGATCTCTTGCACGCGCAGCATGTCACCCTTAGCCGCTACGACAAGGTCCTTGTTGGGGCATCGATACGCTATGGCCATTTCAACGCCGTGCTGGACAAATTTGTTAAGCAGAATATACAACAGCTGAACTCCATGCCTTCTGCATTCTTCGCGGTAAATCTGACCGCTCGTAAGCCAGAAAAAAGGACACCACAAACAAATTCATACGTCAGAAAGTTCCTCCTAGGAACGCCGTGGAAGCCCGCCATGTGCGGTGTTTTTGCTGGCGCCTTGCGATACCCTCGGTATCGGTGGGTGGACAAGGTGATGATCCAATTAATCATGAGGATGACGGGGGGCGAGACTGATACTTCTAAAGAAGTGGAGTACACTGATTGGGAGCAGGTGAAAAAATTTGCTGAGGACTTCGGAAAGCTCTCCTACAAGAAGACGCTGTGA
modifications: The nucleotide sequence of PPO1B
[1]; [4]
  The grade of pesticide damage/plant: number of plants of grade 0: 16
  The grade of pesticide damage/plant: number of plants of grade 1: 0
  The grade of pesticide damage/plant: number of plants of grade 2: 0
  The grade of pesticide damage/plant: number of plants of grade 3: 0
[1]; [5]
  The grade of pesticide damage/plant: number of plants of grade 0: 16
  The grade of pesticide damage/plant: number of plants of grade 1: 0
  The grade of pesticide damage/plant: number of plants of grade 2: 0
  The grade of pesticide damage/plant: number of plants of grade 3: 0
[1]; maize, flumioxazin at different concentrations (120 and 240 g ai/ha)
  tolerance to flumioxazin: high-resistant tolerance
[2]; saflufenacil at four-fold field concentration (100 g ai/ha)
  tolerance to saflufenacil: high-resistant tolerance
[2]; saflufenacil at two-fold field concentration (50 g ai/ha)
  tolerance to saflufenacil: high-resistant tolerance
[2]; [6]
  The grade of pesticide damage/plant: number of plants of grade 0: 16
  The grade of pesticide damage/plant: number of plants of grade 1: 0
  The grade of pesticide damage/plant: number of plants of grade 2: 0
  The grade of pesticide damage/plant: number of plants of grade 3: 0
[2]; [7]
  The grade of pesticide damage/plant: number of plants of grade 0: 16
  The grade of pesticide damage/plant: number of plants of grade 1: 0
  The grade of pesticide damage/plant: number of plants of grade 2: 0
  The grade of pesticide damage/plant: number of plants of grade 3: 0
[3]; oxyfluorfen at four-fold field concentration (720 g ai/ha)
  tolerance to oxyfluorfen: high-resistant tolerance
[3]; oxyfluorfen at two-fold field concentration (360 g ai/ha)
  tolerance to oxyfluorfen: high-resistant tolerance
[3]; [8]
  The grade of pesticide damage/plant: number of plants of grade 0: 16
  The grade of pesticide damage/plant: number of plants of grade 1: 0
  The grade of pesticide damage/plant: number of plants of grade 2: 0
  The grade of pesticide damage/plant: number of plants of grade 3: 0
[3]; [9]
  The grade of pesticide damage/plant: number of plants of grade 0: 16
  The grade of pesticide damage/plant: number of plants of grade 1: 0
  The grade of pesticide damage/plant: number of plants of grade 2: 0
  The grade of pesticide damage/plant: number of plants of grade 3: 0
